Experimental data: publication PMC8632718, “Novel Assay Platform to Evaluate Intracellular Killing of Mycobacterium tuberculosis: In Vitro and In Vivo Validation” (Frontiers in Immunology, 2021)
Numbered stars: 1 amine (or outer) side, 2 acyl side, 3 side chain; on linkers, the order of the positions; unused ones are H or OH. Square brackets hold non-standard residues; d marks the D form. Peptide text beside a SMILES is read from it. * marks the point of attachment. Hydrazinoacetyl = O=C(CNN[*:1])[*:2]; Isonicotinoyl = O=C(c1ccncc1)*

Columns and labels:
[1] = test system: EBC-1 cells; assay type: cell-based, human; conditions: 10 µM, 3 hrs, fixed, 30 profiles
Protocol: In addition to the internalization experiments, the surface morphology of INH-peptide-treated and fixed EBC-1 cells was also studied with atomic force microscopy (AFM) ( Supplementary Information 1.3 ). High-resolution imaging of the cell surfaces was performed with a Flex-Axiom AFM system (Nanosurf, Liestal, Switzerland).The representative images and surface roughness of the native and treated cells are shown in Supplementary Figure S2 .
1.3 Membrane integrity evaluation by atomic force microscopy (AFM) […]
High resolution imaging of the surfaces were performed with a Flex-Axiom AFM system (Nanosurf, Liestal, Switzerland) operating in dynamic mode utilizing soft-tapping cantilevers (Tap150-G, BudgetSensors) with nominal force constant of 5 N/m. The recorded images were evaluated with the Gwyddion software. […]
Two cut-off frequencies were chosen with real-space wavelengths of 1 μm and 200 nm. […] Figure 2D,E,F. Scale dependent surface roughness of the cells was determined according to Antonio et al. Mean Rq values are somewhat higher in the peptide and conjugate treated cells, but […]
Supplementary Figure 2. […] The apex area of the cells was selected for imaging with a scan area of 5 μm × 5 μm (512 × 512 pixel resolution), where the cellular curvature has the smallest distortion effect on the recorded height profiles. […]
1.4. […] To quantify […]

[2] = assay type: in vitro ADME; conditions: rat liver lysosomal homogenate, 37 °C, LC-MS
Protocol: Next, we examined the enzymatic stability of two peptide conjugates in rat liver lysosomal homogenate (see Supplementary Information 2 for the method description). Peptides were dissolved at 0.025 µg/µl concentration then allowed to react with the lysosomal homogenate. Degradation of the conjugates was fast. […]
1.2 Lysosomal degradation studies
Enzymatic stability of INH-Dhvar4 and INH-Penetratin conjugates were assayed in rat liver lysosomal homogenate (protein content was 16.6 µg/µl). Peptides were dissolved in 0.2 M Sodium acetate buffer (pH=5.03) at 0.025 µg/µl concentration and added to the lysosomal homogenate to reach 1 : 1 protein / peptide ratio (37 °C, 600 rpm vortex) . At different time points (5 min, 30 min, 1 h, 6 h, 24 h) the reaction was stopped by the addition of 5 µl formic acid. Sampled were then measured by LC-MS using a Thermo Scientific Q Exactive Focus Hybrid Quadrupole -Orbitrap Mass Spectrometer (Suppl. Figu re 1). For chromatography, a Wa ters Acquity UPLC BEH C18 (1.7 µ, 150 × 2.1 mm) column was used with a flow rate of 300 µL/min applying a gradient elution from 2% to […]
(1 picture or pasted object on this page, not shown here)

[3] = test system: MonoMac-6 cells; conditions: 50 µM

CC(C)C[C@H](NC(=O)[C@H](CCCNC(=N)N)NC(=O)[C@H](CCCCN)NC(=O)CNNC(=O)c1ccncc1)C(=O)N[C@@H](Cc1ccccc1)C(=O)N[C@@H](CCCCN)C(=O)N[C@@H](CCCCN)C(=O)N[C@@H](CC(C)C)C(=O)N[C@@H](CC(C)C)C(=O)N[C@@H](Cc1ccccc1)C(=O)N[C@@H](CO)C(=O)N[C@@H](CC(C)C)C(=O)N[C@@H](CCCNC(=N)N)C(=O)N[C@@H](CCCCN)C(=O)N[C@@H](Cc1ccc(O)cc1)C(N)=O [INH-Dhvar4] (Isonicotinoyl-[Hydrazinoacetyl]KRLFKKLLFSLRKY-NH2)
membrane integrity (AFM surface roughness Rq) [1]: membrane integrity maintained | peaks of the intact conjugates after 30 min of incubation ([2]; 0.2 M sodium acetate buffer pH 5.03, 0.025 µg/µl, 1:1 protein/peptide ratio): almost disappeared | most stable fragment (main peak after 24 h of incubation) ([2]; pH 5.03, 0.025 µg/µl): tripeptide (KRL) covalently attached to INH | viability of MonoMac-6 cells [3]: > 80%
